Among the data in PMC5736220 are ΔTm of pcdh15 values, retold here.

The test has as its target protocadherin-15 EC1+2 R113G, His-tagged (mouse), Q99PJ1. Put plainly: thermal scanning (thermal stability shift assay with SYPRO orange); pcdh15 fixed at 0.1 mg/mL (~4 μM), cdh23 0.1 to 0.5 mg/mL (~4 to 20 μM; cdh23:pcdh15 1:1 to 5:1); SEC buffer (20 mM Tris-HCl pH 7.5, 150 mM KCl, 50 mM NaCl, 2 mM CaCl2); 10 to 95°C in 0.2°C steps, 5 s equilibration; read-out: shift of the Tm of pcdh15 (ΔTm). To be noted: remark: other sources report otherwise.

B1: cadherin-23 EC1+2, wild type, His-tagged, Q99PF4 24-228 (domain or fragment)
chain: QVNRLPFFTNHFFDTYLLISEDTPVGSSVTQLLARDMDNDPLVFGVSGEEASRFFAVEPDTGVVWLRQPLDRETKSEFTVEFSVSDHQGVITRKVNIQVGDVNDNAPTFHNQPYSVRIPENTPVGTPIFIVNATDPDLGAGGSVLYSFQPPSPFFAIDSARGIVTVIQELDYEVTQAYQLTVNATDQDKTRPLSTLANLAIIITD
For the molecule B1, the ΔTm of pcdh15 at cdh23:pcdh15 1:1 is -0.6 °C, the ΔTm of pcdh15 at cdh23:pcdh15 2:1 is 0.2 °C, the ΔTm of pcdh15 at cdh23:pcdh15 3:1 is 1 °C and the ΔTm of pcdh15 at cdh23:pcdh15 4:1 worked out at 1.3 °C. Also, the ΔTm of pcdh15 at cdh23:pcdh15 5:1 is 1.5 °C.
